Measured values published in publication doi:10.1101/2023.04.24.538075 (bioRxiv, 2023).

Target: T1, Cdc24-H (S. cerevisiae, UniProt P11433 1-854)
T1 sequence: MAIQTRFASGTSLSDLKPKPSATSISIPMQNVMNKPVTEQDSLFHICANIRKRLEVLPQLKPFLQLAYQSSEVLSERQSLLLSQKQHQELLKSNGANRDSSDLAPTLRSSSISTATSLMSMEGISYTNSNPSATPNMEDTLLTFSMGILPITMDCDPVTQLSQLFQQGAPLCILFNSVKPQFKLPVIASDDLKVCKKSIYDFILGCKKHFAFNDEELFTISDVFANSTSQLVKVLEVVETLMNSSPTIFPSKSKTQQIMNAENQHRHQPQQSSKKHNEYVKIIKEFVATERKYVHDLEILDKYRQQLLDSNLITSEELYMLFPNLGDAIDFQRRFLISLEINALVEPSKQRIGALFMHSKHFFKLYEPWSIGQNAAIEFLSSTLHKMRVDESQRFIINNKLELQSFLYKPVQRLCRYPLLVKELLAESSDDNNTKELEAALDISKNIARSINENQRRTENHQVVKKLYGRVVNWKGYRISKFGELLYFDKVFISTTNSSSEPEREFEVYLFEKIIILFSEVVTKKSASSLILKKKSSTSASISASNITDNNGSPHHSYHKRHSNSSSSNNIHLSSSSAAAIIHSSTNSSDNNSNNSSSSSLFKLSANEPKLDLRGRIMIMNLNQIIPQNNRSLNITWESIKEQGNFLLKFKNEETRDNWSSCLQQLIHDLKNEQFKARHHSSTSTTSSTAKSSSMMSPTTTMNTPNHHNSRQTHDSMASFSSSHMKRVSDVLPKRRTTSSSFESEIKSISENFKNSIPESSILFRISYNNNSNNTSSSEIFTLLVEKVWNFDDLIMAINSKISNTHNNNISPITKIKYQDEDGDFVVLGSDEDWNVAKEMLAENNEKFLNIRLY
Test: pull-down

binding result: binds
B1: H-Bem1-F (natural protein)
chain: MLKNFKLSKRDSNGSKGRITSADISTPSHDNGSVIKHIKTVPVRYLSSSSTPVKSQRDSSPKNRHNSKDITSPEKVIKAKYSYQAQTSKELSFMEGEFFYVSGDEKDWYKASNPSTGKEGVVPKTYFEVFDRTKPSSVNGSNSSSRKVTNDSLNMGSLYAIVLYDFKAEKADELTTYVGENLFICAHHNCEWFIAKPIGRLGGPGLVPVGFVSIIDIATGYATGNDVIEDIKSVNLPTVQEWKSNIARYKASNISLGSVEQQQQQSITKPQNKSAKLVDGELLVKASVESFGLEDEKYWFLVCCELSNGKTRQLKRYYQDFYDLQVQLLDAFPAEAGKLRDAGGQWSKRIMPYIPGPVPYVTNSITKKRKEDLNIYVADLVNLPDYISRSEMVHSLFVVLNNGFDREFERDENQNNIKTLQENDTATFATASQTSNFASTNQDNTLTGEDLKLNKKLSDLSLSGSKQAPAQSTSGLKTTKIKFYYKDDIFALMLKGDTTYKELRSKIAPRIDTDNFKLQTKLFDGSGEEIKTDSQVSNIIQAKLKISVHDI
